Laboratory results from IntAct's records for PubMed 10364224.

B1: Tyrosine-protein phosphatase non-receptor type 3 (Homo sapiens), P26045 (parent)
chain: MTSRLRALGGRINNIRTSELPKEKTRSEVICSIHFLDGVVQTFKVTKQDTGQVLLDMVHNHLGVTEKEYFGLQHDDDSVDSPRWLEASKAIRKQLKGGFPCTLHFRVRFFIPDPNTLQQEQTRHLYFLQLKMDICEGRLTCPLNSAVVLASYAVQSHFGDYNSSIHHPGYLSDSHFIPDQNEDFLTKVESLHEQHSGLKQSEAESCYINIARTLDFYGVELHSGRDLHNLDLMIGIASAGVAVYRKYICTSFYPWVNILKISFKRKKFFIHQRQKQAESREHIVAFNMLNYRSCKNLWKSCVEHHTFFQAKKLLPQEKNVLSQYWTMGSRNTKKSVNNQYCKKVIGGMVWNPAMRRSLSVEHLETKSLPSRSPPITPNWRSPRLRHEIRKPRHSSADNLANEMTYITETEDVFYTYKGSLAPQDSDSEVSQNRSPHQESLSENNPAQSYLTQKSSSSVSPSSNAPGSCSPDGVDQQLLDDFHRVTKGGSTEDASQYYCDKNDNGDSYLVLIRITPDEDGKFGFNLKGGVDQKMPLVVSRINPESPADTCIPKLNEGDQIVLINGRDISEHTHDQVVMFIKASRESHSRELALVIRRRAVRSFADFKSEDELNQLFPEAIFPMCPEGGDTLEGSMAQLKKGLESGTVLIQFEQLYRKKPGLAITFAKLPQNLDKNRYKDVLPYDTTRVLLQGNEDYINASYVNMEIPAANLVNKYIATQGPLPHTCAQFWQVVWDQKLSLIVMLTTLTERGRTKCHQYWPDPPDVMNHGGFHIQCQSEDCTIAYVSREMLVTNTQTGEEHTVTHLQYVAWPDHGVPDDSSDFLEFVNYVRSLRVDSEPVLVHCSAGIGRTGVLVTMETAMCLTERNLPIYPLDIVRKMRDQRAMMVQTSSQYKFVCEAILRVYEEGLVQMLDPS

Variants of: B1
Details: with tera_human VCP

effect of a mutation on the interaction	Variant
increasing interaction	D811A

Variants of: B1
Details: with tera_human VCP
Remark: another data set of the same source

effect of a mutation on the interaction	Variant
increasing interaction	Y676F;D811A

Variants of: B1
Details: with tera_mouse Vcp

effect of a mutation on the interaction	Variant
increasing interaction	Y676F;D811A
